Results from the supplement of paper PMC12042874.
± gives the uncertainty stated by the source.

Assay: amyloid nucleation score (Sup35N fusion, yeast selection) (log enrichment); library NNK3; higher = more nucleation; inactive = no reads after selection
Method in brief: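 Sup35N was fused to peptides of 20 random codons and expressed in psi-negative yeast, which were induced with 100 μM copper sulfate for 24 hours and then grown on medium lacking adenine and uracil for 7 days at 30°C. Plasmid inserts from input and output were sequenced on Illumina. The nucleation score is the DiMSum log enrichment of output over input reads, centred on the mode score of non-aggregating sequences. Sequences with under 100 input reads were left out, and random libraries had three technical output replicates.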

Substance | amyloid nucleation score
LDFSPWKFSTVGSRSSGMNG | inactive
LDILTDAFQLLCNKKHNNKP | inactive
LDKEFAYIYSYC | inactive
LDLFVV | inactive
LDLLSAVGGVQRLIIHCCWM | inactive
LDNDSWTRGLRGYLTYLRER | inactive
LDNISVLIIFL | 1.34 ± 0.11
LDPEP | inactive
LDRVSTVGSKNLFQRCCKIS | inactive
LDVSLVVVMPIGLRTEWMSG | inactive
LDVVYRDIIDFRVLVESVYF | inactive
LDWDFGHDRVRFPERHT | inactive
LDWLICSWGN | inactive
LEALSLDVNDVVRQYSNSEG | inactive
LELGIYHLMERGIL | inactive
LELVRG | inactive
LEQYEKLRGSPKVNRRMCNQ | inactive
LERTNWCQYHL | inactive
LERVSVSTQYLRLHLDLNSF | inactive
LFCCPDLFRRG | 2.4 ± 0.09
LFCIWSSVLVRVHVFQKW | inactive
LFDFYRNSVTD | inactive
LFEGDQDGMRVCSHHMVFMI | inactive
LFFCNCCYGICS | 2.4 ± 0.079
LFFFMALRVGLPNNTNMGMK | inactive
LFFMIVFSLYEFVMCFSSTR | inactive
LFFSNT | inactive

Substance | amyloid nucleation score
LFFYYMNSDLVR | inactive
LFGTFYPFSTTRFNVVKPDG | inactive
LFISFIVLRKALFTYTCLCF | inactive
LFKMPCLILVWPDSMFATSL | inactive
LFLIGLLGRCDGDFYCIYYT | 1.04 ± 0.21
LFLISG | inactive
LFRGRCAPLFSQSVA | inactive
LFRLKNRFEDKVGNSIRLWE | inactive
LFTACNLKIDVLLSTRSFAL | 1.6 ± 0.079
LFTELGSILF | inactive
LFTLWVMRFEFWYSCFFVSV | inactive
LFVASLTTCIFWA | 2.4 ± 0.054
LFVIKGENNSEEYTNVNFWR | 0.389 ± 0.23
LFVIVMSFLFGWFFYRNNYA | 1.84 ± 0.099
LFVMSLFGHLGLQIYRCLAL | inactive
LFVMVQLCQL | 0.797 ± 0.13
LGAAASSGRPMLTKYHLFWA | inactive
LGAVCVQMKKIDLSKTLETR | inactive
LGESMGRHVKRNKSAPERGM | inactive
LGFSVYSLA | inactive
LGGKDSASILIVPWTILSGL | inactive
LGGLCL | inactive
LGIIH | inactive
LGMIHFVFMYFETYCYTYTI | inactive
LGMVYICYYISVIVDPYSYS | 0.246 ± 0.25
LGNSFLE | -0.445 ± 0.84
LGRYWHVIKLDLVPHMKWCE | inactive

Substance | amyloid nucleation score
LGSLVLLRFWY | -0.181 ± 1.4
LGTPYMDMRG | 1.29 ± 0.15
LGVPSIPGT | inactive
LGVTGINSVIYMYEMVS | inactive
LGWLVGSGKVNRVRPGSLNS | inactive
LHCLEFSCVRHSVRY | 2.14 ± 0.073
LHCPISYLAMSKKS | inactive
LHLHFAIKKLGLRLSTKWWV | inactive
LHPLYRFSANSSKDLFTSRL | inactive
LHPYHYIWKMAHL | inactive
LIDSADWRCVMVVIRLGRCR | inactive
LIFCNATGFTYRWPLTWVVM | inactive
LIFFWSIEA | inactive
LIFTTTRSLFTALPGFEYKD | inactive
LIISFKYCFPWKVVSTSVYN | 1.17 ± 0.17
LIKSSRLCLNRWEWAAGSGM | inactive
LILAMSRLALWSL | inactive
LILYIVAISCSSARSLLRVG | inactive
LINKHNRVMYLAICA | inactive
LINKLENLIYSG | inactive
LINSNVNTVSLFIPFSRMED | 1.58 ± 0.1
LIRMQVGLLGV | inactive
LISLPVG | -0.254 ± 0.7
LITKWKWEFANTQWRSGQKG | 1.36 ± 0.15
LIVLVMHKLYKLWSGRLRVV | inactive
LIYILWH | inactive
